The values below come from patent US20230313187A1, “MODIFICATIONS OF MAMMALIAN CELLS USING ARTIFICIAL MICRO-RNA TO ALTER THEIR PROPERTIES AND THE COMPOSITIONS OF THEIR PRODUCTS” (DNA TWOPOINTO INC., priority 2020, published 2023).

For series [1], the system named is Cricetulus griseus alpha-(1,6)-fucosyl transferase (FUT8) mRNA. Kind of series: Antibody titer and fucosylation with different numbers of amiRNA hairpins in the 3' UTR of the glutamine synthetase selectable marker. It is filed as cell-based. The note with it: for antibody titer: weaker (PGK) promoter operably linked to glutamine synthetase, amiRNA in 3' UTR; for antibody fucosylation: weaker (PGK) promoter, amiRNA in GS 3' UTR, natural level around 80-85%. An excerpt: One- two- or three-hairpin amiRNAs were incorporated into the 3′ UTR of a glutamine synthetase selectable marker on a transposon. The multi-hairpin amiRNA with nucleotide sequence SEQ ID NO: 194 comprised three hairpins as described in Section 6.1.1.1.
These amiRNA sequences were placed to the 3′ of an open reading frame encoding a glutamine synthetase protein (with polypeptide sequence SEQ ID NO: 307) and followed by a human globin polyadenylation sequence. The amiRNA genes were cloned into a transposon vector in which they were operably linked to a Pol II promoter. The transposon further comprised genes encoding an antibody with mature light chain polypeptide sequence SEQ ID NO: 286 and mature heavy chain polypeptide sequence SEQ ID NO: 288. The transposon further comprised a left end comprising a 5′-TTAA-3′ target sequence immediately followed by an ITR with nucleotide sequence SEQ ID NO: 423 (which is an embodiment of SEQ ID NO: 421) and additional nucleotide sequence SEQ ID NO: 417 and a right end comprising nucleotide sequence SEQ ID NO: 419 immediately followed by an ITR with nucleotide sequence SEQ ID NO: 424 (which is an embodiment of SEQ ID NO: 422) immediately followed by a 5′-TTAA-3′ target sequence. The transposon was configured so that the multi-hairpin amiRNA, the glutamine synthetase gene and the genes for both antibody chains, as well as all necessary operably linked control elements were transposable by a corresponding transposase.
Transposons were co-transfected with mRNA encoding transposase with polypeptide sequence SEQ ID NO: 472 into a CHO cell line with no functional glutamine synthetase gene. The pool of transfected cells were grown in the absence of glutamine added to the media until their viability reached 95%. They were then grown in a 14 day fed-batch using Sigma Advanced Fed Batch media. Protein was purified from the culture supernatant using protein A affinity chromatography, reduced with dithiothreitol, and analyzed on an Agilent QTOF mass spectrometer. We integrated the area under the peaks at 50,456 Da (corresponding to the heavy chain modified by G0: the conserved heptasaccharide core composed of 2 N-acetylglucosamine, 3 mannose and 2 other N-acetylglucosamine residues that are β-1,2 linked to α-6 mannose and α-3 mannose, forming two arms) and 50,602 (corresponding to the heavy chain modified by G0F: the conserved heptasaccharide core plus a fucose residue) to calculate the relative proportion of fucosylated and afucosylated antibody.
Table 5. Inhibition of antibody fucosylation with different numbers of amiRNA hairpins. Transposons were constructed as described in Section 6.1.2.1. The SEQ ID NO of the amiRNA gene including the glutamine synthetase ORF and the globin polyA sequence is given in column A. The Pol II promoter shown in column B was operably linked to the amiRNA whose SEQ ID NO is shown in column C. The amiRNA comprised the number of hairpins shown in column D. Following a 14-day fed batch antibody production run, the culture supernatant contained the concentration of antibody shown in column E. The percentage of antibody that was afucosylated is shown in column F, the percentage that was fucosylated is shown in column G. BDL=below detection limit.

In series [2] the test system is Cricetulus griseus glutamine synthetase mRNA. As to the kind of experiment: Growth of CHO cell pools with amiRNA targeted toward glutamine synthetase in the absence of glutamine. The note with it: for VCD: glutamine-free media. Type of series: cell-based. The source says: The multi-hairpin amiRNA was cloned into a piggyBac-like transposon to the 3′ of a spacer polynucleotide with nucleotide sequence SEQ ID NO: 280, and operably linked to a PGK promoter with nucleotide sequence SEQ ID NO: 386. The nucleotide sequence of the multi-hairpin amiRNA gene is given as SEQ ID NO: 540. The piggyBac-like transposon further comprised a selectable marker conferring resistance to G418/neomycin with amino acid sequence SEQ ID NO: 296. The piggyBac-like transposon further comprised a target sequence 5′-TTAA-3′ immediately followed by an ITR with nucleotide sequence SEQ ID NO: 448 (which is an embodiment of SEQ ID NO: 564), immediately followed by further transposon end sequences with nucleotide sequence SEQ ID NO: 445. The piggyBac-like transposon further comprised nucleotide sequence SEQ ID NO: 446, immediately followed by a second ITR with nucleotide sequence SEQ ID NO: 449 (which is an embodiment of SEQ ID NO: 447), immediately followed by the target sequence 5′-TTAA-3′. The transposon was configured so that the multi-hairpin amiRNA, the spacer polynucleotide and the gene encoding the selectable marker, as well as all necessary operably linked control elements, were transposable by a corresponding transposase. The full sequence of the transposon comprising the multi-hairpin amiRNA gene and selectable marker is given as SEQ ID NO: 544.
The transposon was co-transfected with mRNA encoding transposase with polypeptide sequence SEQ ID NO: 523 into a CHO cell line with intact glutamine synthetase genes. The pool of transfected cells were grown in the presence of 600 or 1,000 μg/ml G418 plus 5 mM glutamine until their viability reached 95%.
After the transfected cell pools had recovered to >95% viability, we tested their ability to grow in the absence of glutamine. Cells were transferred to Sigma Advanced Fed Batch media lacking glutamine to an initial a density of 0.3×10^6 live cells/ml. The viable cell density was measured at various times after the removal of glutamine. On the fourth day, cells were diluted back to a density of 0.3×10^6 live cells/ml in media lacking glutamine, to ensure that growing cells had sufficient nutrients. […] After this, the viable cell density approximately tripled between dilution on day 4 and day 6 and doubled again between day 6 and day 8. […] The viable cell density then began to fall for both pools transfected with a transposon comprising the multi-hairpin amiRNA with nucleotide sequence SEQ ID NO: 209 at day 6 (Table 7 columns B and C, compare rows 6, 7 and 8). By day 8 the viable cell density had fallen precipitously to less than 0.02×10^6 live cells/ml. There was no difference between the growth of cells transfected with the control transposon or the transposon comprising the multi-hairpin amiRNA with nucleotide sequence SEQ ID NO: 209 in the presence of glutamine: all pools grew well. We conclude that a multi-hairpin amiRNA comprising guide strand sequences complementary to three different sequences within the CHO glutamine synthetase mRNA target (nucleotide sequence SEQ ID NO: 10) can be used to make a CHO cell dependent upon exogenously provided glutamine. The cells in this pool had been selected with neomycin/G418, which allowed growth of cells whose genomes comprised the transposon comprising the multi-hairpin amiRNA. […] By using the multi-hairpin amiRNA gene we were able to produce a pool of cells in which expression of the essential metabolic enzyme glutamine synthetase was inhibited to a level that prevents growth of the cell in greater than 93% of the cells in the pool.
The multi-hairpin amiRNA with nucleotide sequence SEQ ID NO: 209 was also cloned into three other piggyBac-like transposons, also to the 3′ of a spacer polynucleotide with nucleotide sequence SEQ ID NO: 280. In the first transposon the multi-hairpin amiRNA was operably linked to a PGK promoter with nucleotide sequence SEQ ID NO: 385. […]

B1: SEQ ID NO: 196: two-hairpin amiRNA, guides SEQ ID NOs 23 and 24 complementary to Cricetulus griseus FUT8 mRNA (nucleic acid)
chain: ATCTGATCTTCTGAAGAAAATATATTTCTTTTTATTCATAGCTCTTAACTAGTGGTGATAGCAATGTCAGCAGTGCCTGGAAAAACATCCATTCTCATTCGTGAAGCCACAGATGGAATGAGAATAGATGTTTTTCAAAGTAAGGTTGACCATACTCTACTCTAGTTATATTCTTTAGGCACGAATGTGTGTTTAAAAAAAATAAAAACTAGTGGTGATAGCAATGTCAGCAGTGCCTTTAAATTACATAATGTGGCAGTGTGAAGCCACAGATGACTGCCACATCATGTAATTTACAAGTAAGGTTGACCATACTCTACTCTAGAGTTGTGTTTTAATGTATATTAATGTTACTAATGTGTTTTCAGTTTTATTGATAGTCTTTTCAGTATTATTGATAATCTT
Take B1: in series [1], the antibody titer stood at 770 mg/L and the antibody fucosylation is recorded as 10%.

B2: SEQ ID NO: 209: three-hairpin amiRNA, guides SEQ ID NOs 53, 54, 55 complementary to Cricetulus griseus glutamine synthetase mRNA (nucleic acid)
chain: ATCTGATCTTCTGAAGAAAATATATTTCTTTTTATTCATAGCTCTTAACTAGTGGTGATAGCAATGTCAGCAGTGCCTTTGAGTTACAATGAGACAGCTGGTGAAGCCACAGATGCAGCTGTCTCCTTGTAACTCACAAGTAAGGTTGACCATACTCTACTCTAGAGTTGTGTTTTAATGTATATTAATGTTACTAATGTGTTTACTAGTGGTGATAGCAATGTCAGCAGTGCCTTATTCTGACCAATAAAAGCAAGGTGAAGCCACAGATGCTTGCTTTTACTGGTCAGAATCAAGTAAGGTTGACCATACTCTACTCTAGGTTATTTTTAGTATGATTCTGTAAAAATGAATTAATACTAACTAGTGGTGATAGCAATGTCAGCAGTGCCTTTTTACCTGAAGAACTAGCAGCGTGAAGCCACAGATGGCTGCTAGTTATTCAGGTAAACAAGTAAGGTTGACCATACTCTACTCTAGTCAGTTTTATTGATAGTCTTTTCAGTATTATTGATAATCTT
In the case of B2, the “cells in the pool in which glutamine synthetase is inhibited to a level that prevents growth” value in series [2] (G418-selected pool) was “greater than 93%”. The “dependence on exogenously supplied glutamine” value in series [2] (amiRNA operably linked to a promoter and integrated into the CHO genome, also PGK, EF1, EEF2 promoters in other transposons, listed as 209) is recorded as “completely dependent upon exogenously supplied glutamine”. Besides, the “increase in viable cell density” value in series [2] (between day 1 and day 4 without glutamine, pool selected with 600 μg/ml G418) is “less than 50%”; in series [2] (to day 4 without glutamine, pool selected with 1,000 μg/ml G418), “failed to increase their viable cell density at all”. Further, the cells still alive entry in series [2] (by day 8 without glutamine) was “less than 7%”. Also, in series [2] (by day 8 without glutamine, both pools), the viable cell density result is “less than 0.02 ×10^6 live cells/ml”. For the same molecule, the VCD in series [2] (600 ug/ml G418 pool, day 1) was 0.45 x 10^6 live cells/ml; in series [2] (600 ug/ml G418 pool, day 4 after dilution) it was 0.30 x 10^6 live cells/ml; in series [2] (600 ug/ml G418 pool, day 4 before dilution), 0.47 x 10^6 live cells/ml; in series [2] (600 ug/ml G418 pool, day 6), 0.21 x 10^6 live cells/ml; in series [2] (600 ug/ml G418 pool, day 8) it was 0.01 x 10^6 live cells/ml; in series [2] (1000 ug/ml G418 pool, day 1), 0.31 x 10^6 live cells/ml. Further, the VCD in series [2] (1000 ug/ml G418 pool, day 4 after dilution) is listed as 0.30 x 10^6 live cells/ml; in series [2] (1000 ug/ml G418 pool, day 4 before dilution), 0.30 x 10^6 live cells/ml; in series [2] (1000 ug/ml G418 pool, day 6), 0.26 x 10^6 live cells/ml; in series [2] (1000 ug/ml G418 pool, day 8), 0.02 x 10^6 live cells/ml; in series [2] (pool selected with 600 ug/ml G418, day 0 (inoculation)), 0.30 x 10^6 live cells/ml; in series [2] (pool selected with 1000 ug/ml G418, day 0 (inoculation)), 0.30 x 10^6 live cells/ml.

B3: SEQ ID NO: 197: single hairpin amiRNA, guide SEQ ID NO: 23 complementary to Cricetulus griseus FUT8 mRNA (nucleic acid)
chain: ATCTGATCTTCTGAAGAAAATATATTTCTTTTTATTCATAGCTCTTAACTAGTGGTGATAGCAATGTCAGCAGTGCCTGGAAAAACATCCATTCTCATTCGTGAAGCCACAGATGGAATGAGAATAGATGTTTTTCAAAGTAAGGTTGACCATACTCTACTCTAGAGTTGTGTTTTAATGTATATTAATGTTACTAATGTGTTTTCAGTTTTATTGATAGTCTTTTCAGTATTATTGATAATCTT
As to B3, in series [1], the antibody titer was found to be 514 mg/L and the antibody fucosylation entry is given as “about 50%”.
